Assay results reported in patent US20170226213A1 (Daiichi Sankyo, published 2017).
Substitutions are numbered along the chain they refer to.

B1: human anti-FGFR4 antibody U4-9 (antibody, V domains shown)
VH: EVQLLESGGGLVQPGGSLRLSCAASGFTFSDYYMSWIRQAPGKGLEWVSTISGSGGSTYYADSVKGRFTISRDNSKNTLYLQMNSLRAEDTAVYYCARLTAYGHVDSWGQGTLVTVSS
VL: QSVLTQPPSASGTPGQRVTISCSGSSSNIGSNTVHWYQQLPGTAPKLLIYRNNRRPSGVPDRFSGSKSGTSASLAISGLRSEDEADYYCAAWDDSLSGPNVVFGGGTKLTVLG
notes: IgG format
B2: human anti-FGFR4 antibody U4-5 (antibody, V domains shown)
VH: EVQLLESGGGLVQPGGSLRLSCAASGFTFSSNYMNWVRQAPGKGLEWVAVISYDGSNKYYADSVKGRFTISRDNSKNTLYLQMNSLRAEDTAVYYCVTKSRDFWRGPFDYWGQGTLVTVSS
VL: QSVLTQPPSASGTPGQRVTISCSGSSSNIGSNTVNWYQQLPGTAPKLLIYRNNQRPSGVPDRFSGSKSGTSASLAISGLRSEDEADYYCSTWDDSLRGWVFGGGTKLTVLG
notes: IgG format
B3: human anti-FGFR4 antibody U4-3 (antibody, V domains shown)
VH: B1 VH
VL: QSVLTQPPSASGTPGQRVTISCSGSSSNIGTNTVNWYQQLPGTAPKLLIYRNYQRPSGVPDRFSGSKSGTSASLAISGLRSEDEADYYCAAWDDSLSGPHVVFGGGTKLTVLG
B4: human anti-FGFR4 antibody U4-2 (antibody, V domains shown)
VH: B1 VH with D31K, Y32A, Y33W, I37V, T50A, T100Y, A101S, H104D, V105F, S107H
VL: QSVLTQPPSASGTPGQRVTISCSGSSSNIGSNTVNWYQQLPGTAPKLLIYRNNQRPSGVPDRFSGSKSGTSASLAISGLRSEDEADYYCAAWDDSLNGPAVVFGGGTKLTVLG
B5: human anti-FGFR4 antibody U4-8 (antibody, V domains shown)
VH: EVQLLESGGGLVQPGGSLRLSCAASGFTFSSNYMSWVRQAPGKGLEWVSSISGSGGRTYYADSVKGRFTISRDNSKNTLYLQMNSLRAEDTAVYYCARMTVFGAATLWGQGTLVTVSS
VL: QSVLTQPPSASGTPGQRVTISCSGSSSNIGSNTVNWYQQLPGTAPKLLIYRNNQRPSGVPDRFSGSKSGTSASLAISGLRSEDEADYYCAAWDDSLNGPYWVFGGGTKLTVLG
notes: IgG format
B6: human anti-FGFR4 antibody U4-1 (antibody, V domains shown)
VH: B5 VH with S31R, S50A, R57S, M99V, V101S, F102P, A105F, T106D, L107I
VL: QSVLTQPPSASGTPGQRVTISCSGGTSNIGTNTVNWYQQLPGTAPKLLIYRNNQRPSGVPDRFSGSKSGTSSSLAISGLRSEDEADYYCAAWDDSLNGPYVVFGGGTKLTVLG
B7: human anti-FGFR4 antibody U4-7 (antibody, V domains shown)
VH: B1 VH with I37V, T50A, R98T, T100A, A101T, H104P, V105F, S107D
VL: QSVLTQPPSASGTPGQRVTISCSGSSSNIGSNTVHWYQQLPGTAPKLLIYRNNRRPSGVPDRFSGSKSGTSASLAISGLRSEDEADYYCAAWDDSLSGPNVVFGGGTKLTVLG
notes: IgG format
B8: human anti-FGFR4 antibody U4-6 (antibody, V domains shown)
VH: EVQLLESGGGLVQPGGSLRLSCAASGFTFSDYYMNWVRQAPGKGLEWVSAIGGSGDRTYYADSVKGRFTISRDNSKNTLYLQMNSLRAEDTAVYYCALGGSYFGYWGQGTLVTVSS
VL: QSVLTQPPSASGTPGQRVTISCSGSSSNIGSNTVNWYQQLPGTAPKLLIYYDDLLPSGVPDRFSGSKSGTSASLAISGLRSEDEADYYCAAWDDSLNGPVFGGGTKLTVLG
notes: IgG format
B9: FGFR4 binding Fab U4-5 (Fab, V domains shown)
VH: B2 VH
VL: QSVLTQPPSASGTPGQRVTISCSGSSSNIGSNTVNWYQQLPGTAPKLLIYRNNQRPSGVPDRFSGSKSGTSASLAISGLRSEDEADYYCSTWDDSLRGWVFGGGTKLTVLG
B10: FGFR4 binding Fab U4-4 (Fab, V domains shown)
VH: EVQLLESGGGLVQPGGSLRLSCAASGFTFSSNYMSWVRQAPGKGLEWVSLISGSGGSTYYADSVQGRFTISRDNSKNTLYLQMNSLRAEDTAVYYCARNTAGFGYFDLWGQGTLVTVSS
VL: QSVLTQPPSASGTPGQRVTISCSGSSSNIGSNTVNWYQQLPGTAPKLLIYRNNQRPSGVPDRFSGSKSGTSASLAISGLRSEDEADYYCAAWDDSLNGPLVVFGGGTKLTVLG
B11: FGFR4 binding Fab U4-1 (Fab, V domains shown)
VH: B5 VH with S31R, S50A, R57S, M99V, V101S, F102P, A105F, T106D, L107I
VL: B6 VL
B12: FGFR4 binding Fab U4-8 (Fab, V domains shown)
VH: B5 VH
VL: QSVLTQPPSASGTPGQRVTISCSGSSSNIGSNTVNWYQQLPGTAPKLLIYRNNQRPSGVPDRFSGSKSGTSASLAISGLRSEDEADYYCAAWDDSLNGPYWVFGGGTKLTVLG
B13: FGFR4 binding Fab U4-2 (Fab, V domains shown)
VH: B1 VH with D31K, Y32A, Y33W, I37V, T50A, T100Y, A101S, H104D, V105F, S107H
VL: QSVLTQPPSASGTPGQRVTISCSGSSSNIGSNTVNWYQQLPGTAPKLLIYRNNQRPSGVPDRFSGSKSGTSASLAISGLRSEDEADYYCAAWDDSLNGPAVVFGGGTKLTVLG
B14: FGFR4 binding Fab U4-7 (Fab, V domains shown)
VH: B1 VH with I37V, T50A, R98T, T100A, A101T, H104P, V105F, S107D
VL: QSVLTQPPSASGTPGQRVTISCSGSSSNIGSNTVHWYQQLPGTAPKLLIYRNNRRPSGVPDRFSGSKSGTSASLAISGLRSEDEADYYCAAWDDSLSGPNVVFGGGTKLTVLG

What follows are binders tested against T1, extracellular domain of human FGFR4 (myc- and His-tagged) (human, UniProt P22455 22-369) (assay: ELISA, FGFR4 ECD (myc/His) captured by anti-His antibody, AP-coupled anti-human IgG F(ab') detection).
T1 construct: extracellular domain; Captured on the plate by a mouse anti-His tag antibody; also called human FGFR4-His/Myc; FGFR4 ECD; not shown: myc and His tags
Experimental: (§1) Mouse anti-His tag antibody was obtained from Bio-Rad (Hercules, Calif.; U.S.A.) and coated onto MaxiSorp® flat-bottom 96 well ELISA plates (Sigma, St. Louis, Mo.; U.S.A.) at a concentration of 2 μg/ml. After coating, the extracellular domain of human FGFR4 (myc- and His-tagged) was added at a concentration of 0.01 μg/ml. After removal of unbound protein, indicated antiFGFR4 antibody was added (1:4 serial dilution, starting concentration 10 μg/ml) and binding was finally detected with the AttoPhos® AP Fluorescent Substrate System (Promega) using an alkaline-phosphatase coupled goat anti-human IgG F(ab′) fragment on the Fluostar Omega fluorescent plate reader instrument from BMG Labtech (Ortenberg; Germany). Subsequently, dissociation constants were calculated for U4-3, -5 and -9 using Graph Pad Prism (Table 5).

Row | EC50 (read off the curve) [pM] | Binder
1 | ~80 | B1

What follows are binders tested against T1, extracellular domain of human FGFR4 … (assay: ELISA, FGFR4 ECD (myc, His) captured by anti-His antibody).
Experimental: as §1

Row | Kd [pM] | Binder
2 | 80 | B2
3 | 70 | B1

What follows are binders tested against T2, FGFR4 construct with Ig-like domain 1 (amino acids 22-180) on Hek293 cells (UniProt P22455 22-180) (assay: flow cytometry on Hek293 cells transfected with the FGFR4 (D1) construct, PE-conjugated anti-human IgG).
T2 construct: range 22-180; Expressed on transfected Hek293 cells
Experimental: Hek293 cells were obtained from CLS and cultured in DMEM containing 10% FBS under standard conditions at 37° C. and 5% CO2. On Day 0, cells were seeded and after 24 h cells were transfected with plasmids coding for FGFR4 containing the indicated domain. Cells were allowed to express the proteins for 48 h and were then dissociated from the dish with 5 mM EDTA in PBS followed by incubation with indicated anti-FGFR4 antibody. Binding was determined using a Phycoerythrin-conjugated anti-human IgG antibody (Jackson Immuno Research Europe). Data was acquired with a BD Accuri C6 flow cytometer (BD Biosciences) and analyzed using the AccuriC6 software.

Row | binding result | Binder
4 | no binding | B3

Each binder was assayed against antigen of the Biacore assay (FGFR4; construct not stated) (UniProt P22455 22-369, limits assumed) (assay: Biacore T100, antibody captured by anti-human IgG, antigen injected, bivalent analyte model, KD1, average of 3).
Experimental: Standard amine coupling was applied to prepare a goat anti-human IgG capturing S-CM5 sensor chip (the reference flow cell contained the capturing antibody as well). The carboxymethylated dextran (CMD) surface was activated by injecting a mixture of 200 mM EDC and 50 mM NHS for 7 min (10 μl/min). Subsequently, 30 μg/ml anti-human IgG antibody diluted in 10 mM Na acetate pH 5.0 was injected for 7 minutes (10 μl/min). The remaining unreacted esters were quenched with 1 M Ethanolamine pH 8.5 (7 min, […]). Surface densities of 17892-18376 RU were obtained for the antihuman IgG antibody.
Interaction analyses of antigen with reversibly captured antibody were performed using a Biacore™ T100 instrument (GE Healthcare Bio-Sciences (Piscataway, N.J.; U.S.A.)) at 25° C. in HBS analysis buffer (10 mM HEPES pH 7.4, 150 mM NaCl, 50 μM EDTA, 0.05% Tween 20). 37-38 RU of specific antibody was captured on a flow cell. […] The dissociation was recorded for 10 min at the same flow rate. […]
Data processing (e.g. blank run subtraction) and evaluation was performed by global fitting applying a bivalent analyte binding model using the Biacore T100 Evaluation Software version 2.0.3. The equilibrium dissociation constant KD1 was calculated by dividing kd1 with ka1.

Row | Kd [pM] | Binder
5 | 120 | B1

What follows are binders tested against T3, cynomolgus monkey FGFR4 on transfected Hek293 cells (cynomolgus monkey) (assay: flow cytometry titration on transfected Hek293 cells).
T3 construct: whole, on cells
Experimental: Hek293 cells were obtained from CLS (Cell Lines Service, Eppelheim; Germany) and cultured in DMEM containing 10%FBS under standard conditions at 37° C. and 5% CO2. On Day 0, cells were seeded at 4×10⁵ cells/10 cm dish. After 24 h, cells were transfected with plasmids coding for FGFR4 from rat, mouse, human or cynomolgus monkey. Cells were allowed to express the proteins for 48 h and were then dissociated from the dish with 5 mM EDTA in PBS followed by incubation with indicated concentrations of anti-FGFR4 antibody U4-3 or GT-13. Binding was determined using a Phycoerythrin-conjugated anti-human IgG antibody (Jackson Immuno Research Europe). Data was acquired with a BD Accuri C6 flow cytometer (BD Biosciences.) and analyzed using the AccuriC6 software. Antibody titrations experiment (starting concentration 10 μg/ml; 1:3 dilution) allowed calculation of the dissociation constants for the antibodies (see table below).

Row | Kd [pM] | Binder
6 | 320 | B3

Each binder was assayed against T4, human FGFR4 (FGF receptor 4) on cells (human, UniProt P22455 22-802) (assay: flow cytometry titration on Huh-7 cells).
T4 construct: whole, on cells; also called hFGFR4
Experimental: Huh-7 cells (obtained from JCRB Cell Bank) were cultured in DMEM containing 10% FBS under standard conditions at 37° C. and 5% CO₂. Cells were harvested with 5 mM EDTA (in PBS) and 200,000 cells per sample were incubated with indicated anti-FGFR4 antibody (1:3 serial dilution; starting concentration 30 μg/ml) for 30 min at 4° C. After incubation, cells were washed and bound antibody was determined using a Phycoerythrin-labeled anti-human IgG antibody (Jackson Immuno Research). Antibody binding to Huh-7 was measured with a BD Accuri C6 flow cytometer (BD Biosciences, San Jose, Calif.; U.S.A.) and analyzed using the AccuriC6 software. Subsequently, the equilibrium dissociation constant (KD) was determined using Prism (GraphPad Software, La Jolla, Calif., U.S.A.).

Row | Kd [pM] | Binder
7 | 1500 | B2
8 | 150 | B4
9 | 460 | B5
10 | 850 | B6
11 | 1300 | B7
12 | 1600 | B8

What follows are binders tested against T4, human FGFR4 (FGF receptor 4) on cells (assay: cell-based or functional assay).

Row | Elk1 luciferase reporter gene assay, % of control (+rhFGF 17), Fab at 0.1 µg/ml | Elk1 luciferase reporter gene assay, % of control (+rhFGF 17), Fab at 1 µg/ml | Elk1 luciferase reporter gene assay, % of control (+rhFGF 17), Fab at 10 µg/ml | Binder
13 | 116 % of control (+rhFGF 17) | 43.2 % of control (+rhFGF 17) | 16.3 % of control (+rhFGF 17) | B9
14 | 82.2 % of control (+rhFGF 17) | 28.8 % of control (+rhFGF 17) | 20.1 % of control (+rhFGF 17) | B10
15 | 70.4 % of control (+rhFGF 17) | 39.6 % of control (+rhFGF 17) | 32 % of control (+rhFGF 17) | B11
16 | 65.2 % of control (+rhFGF 17) | 22.5 % of control (+rhFGF 17) | 12.7 % of control (+rhFGF 17) | B12
17 | 112 % of control (+rhFGF 17) | 43.8 % of control (+rhFGF 17) | 26.6 % of control (+rhFGF 17) | B13
18 | 72.6 % of control (+rhFGF 17) | 33.1 % of control (+rhFGF 17) | 16.8 % of control (+rhFGF 17) | B14

Target: T4, human FGFR4 (FGF receptor 4) on cells
Assay: cell-based or functional assay
Remark: another data set of the same source

Row | IC50, NIH3T3 spheroid growth assay (CellTiter-Glo) [pM] | Binder
19 | 10600 | B1
